Experimental findings from patent US20120276009A1 (KATHOLIEKE UNIVERSITEIT LEUVEN, published 2012) are described below.

The target in test [1] is T1, T1.6: Tau5-20 (non-phosphorylated peptide) (human).
T1 construct: Non-phosphorylated counterpart of T1.5; also called Tau peptide
T1 peptide: RQEFEVMEDHAGTYGL
As to the kind of experiment: ELISA, peptide coated at 10 µg/mL.

Test [2] has as its target T2, full-length (441 aa) human Tau protein (human, UniProt P10636 1-758).
T2 construct: Non-phosphorylated recombinant protein bought from SignalChem; also called Full-length Tau; Tau40
As to the kind of experiment: ELISA, protein coated at 1 µg/mL. A general note: ELISA stands for enzyme-linked immunosorbent assay.

T2 sequence (P10636 other isoform, or with tags, fused parts or gaps limits assumed): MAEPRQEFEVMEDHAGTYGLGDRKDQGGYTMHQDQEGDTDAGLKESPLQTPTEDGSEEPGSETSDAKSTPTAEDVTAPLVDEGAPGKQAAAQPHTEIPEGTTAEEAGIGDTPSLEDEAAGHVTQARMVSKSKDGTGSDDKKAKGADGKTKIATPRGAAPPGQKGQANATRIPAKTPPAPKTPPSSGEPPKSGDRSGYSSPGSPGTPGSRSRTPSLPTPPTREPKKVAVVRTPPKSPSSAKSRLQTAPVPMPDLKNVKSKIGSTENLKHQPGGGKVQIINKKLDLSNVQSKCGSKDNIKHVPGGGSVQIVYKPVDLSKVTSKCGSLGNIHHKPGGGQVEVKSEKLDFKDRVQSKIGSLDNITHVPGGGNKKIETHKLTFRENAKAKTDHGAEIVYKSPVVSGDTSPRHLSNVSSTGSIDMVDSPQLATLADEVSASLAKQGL

B1: ACI-33-6C10-Ab2 (antibody, IgG3, V domains shown)
VH: EVQLVESGGGLVKPGGSLKLSCAPSGFTFSDYGMHWVRQAPEKGLEWVAYISSGSSTIYYGDTVKGRFTISRDNAKNTLFLQMTSLRSEDTAMYYCARRGQLRLRLFAYWGQGTLVTVSA
VL: DIVMTQSHKFMSTSVGDRVSITCKASQDVSTAVAWYQQKPGQSPKLLIYSASYRYTGVPDRFTGSGSGTDFTFTISSVQAEDLAVYYCQQHYTTPLTFGAGTKLELK
notes: Mouse monoclonal from hybridoma 6C10E5E9C12 (DSM ACC3081); also called 6C10E5E9C12
As for B1, in test [1], the binding result was “no binding (tested: 20 µg/mL)”.

B2: ACI-35-2G5-Ab1 (antibody, IgG2b, V domains shown)
VH: QVQLKQSGAELVRPGASVKLSCKASGYTFTDYYINWVKQRPGQGLEWIARIYPGRGNIYYNEKFKGKATLTAEKSSSTAYMQLSSLTSEDSAVYFCARFWDVTYWGQGTLVTVSA
VL: DVLMTQTPLSLPVSLGDQASISCRSSQSIVHSNGNTYLEWFLQKPGQSPKLLIYKVSNRFSGVPDRFSGSGSGTDFTLKISRVEAEDLGVYYCFQGSHVPYTFGGGTKLEIK
notes: Mouse monoclonal from hybridoma A6-2G5-08; also called A6-2G5-08
On to B2, for which, in test [2], the binding result is recorded as “no binding (tested: 20 µg/mL)”.
